The values that follow come from patent publication US20200157212A1 (Pfizer, published 2020).

Assay [1] deals with T1, Human ROBO2 Ig 1,2 KSR mutant (human, UniProt Q7TPD3 31-220 (mouse entry), limits assumed).
T1 construct: recombinant protein; also called ROBO2-KSR mutant protein; Human ROBO2 Ig1-2 with the RSK mutated to KSR
T1 chain: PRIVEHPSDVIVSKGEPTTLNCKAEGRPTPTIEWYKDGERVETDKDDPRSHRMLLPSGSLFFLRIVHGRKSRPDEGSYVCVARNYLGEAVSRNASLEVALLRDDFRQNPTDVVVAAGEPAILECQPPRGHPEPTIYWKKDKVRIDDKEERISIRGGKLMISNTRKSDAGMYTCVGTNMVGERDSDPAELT
In words: Octet Red BLI, Abcs35 captured on AHC sensors, ROBO proteins in solution. The text has this:
(§1) Octet Red AHC (Anti-Human IgG FC) Sensors were loaded with Abcs35. The loaded sensors were then exposed to Human ROBO2 Ig1-2, Rat ROBO2 Ig 1-2, Human ROBO2 Ig1-2 with the RSK mutated to KSR as in ROBO1, or ROBO1 Ig1-2 then the sensors were moved to PBS only, lacking any ROBO1 or 2 proteins. The arrows indicate curves for each of the ROBO proteins tested.
(§2) Based upon the crystal structure described above, the following experiments were done to confirm the epitope specificity of 93H2 and/or affinity matured clones Abcs35. Using Octet Red, epitope specificity was confirmed biochemically. Abcs35, at 10 μg/ml, was captured on AHC sensors for 60 seconds. Recombinant human ROBO2 Ig1-Ig2, rat […], human ROBO2 containing the ROBO1 KSR sequence (ROBO2-KSR mutant), and human ROBO1 Ig1-Ig2, prepared at 100 nM, were used to interact with captured Abcs35. Association time was 100 seconds then dissociation was followed for 20 seconds. Abcs35 specifically bound human and rat ROBO2 but not human ROBO1 or the ROBO2-KSR mutant protein (FIG. 2).

A further assay addresses T2, Human ROBO1 Ig1-Ig2 (human, UniProt Q9Y6N7 68-257).
T2 construct: recombinant protein; also called ROBO1 Ig1-2; Human ROBO1 Ig 1,2
T2 sequence: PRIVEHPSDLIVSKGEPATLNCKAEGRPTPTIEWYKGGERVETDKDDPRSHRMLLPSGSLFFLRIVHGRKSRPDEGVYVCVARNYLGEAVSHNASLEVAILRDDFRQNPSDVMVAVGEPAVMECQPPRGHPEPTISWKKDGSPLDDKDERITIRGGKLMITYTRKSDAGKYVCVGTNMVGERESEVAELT
The assay is described as above.
Excerpt: as §1, §2

The target of the next assay is T3, Rat ROBO2 on cells (rat, UniProt Q7TPD3 22-1469 (mouse entry)).
T3 chain: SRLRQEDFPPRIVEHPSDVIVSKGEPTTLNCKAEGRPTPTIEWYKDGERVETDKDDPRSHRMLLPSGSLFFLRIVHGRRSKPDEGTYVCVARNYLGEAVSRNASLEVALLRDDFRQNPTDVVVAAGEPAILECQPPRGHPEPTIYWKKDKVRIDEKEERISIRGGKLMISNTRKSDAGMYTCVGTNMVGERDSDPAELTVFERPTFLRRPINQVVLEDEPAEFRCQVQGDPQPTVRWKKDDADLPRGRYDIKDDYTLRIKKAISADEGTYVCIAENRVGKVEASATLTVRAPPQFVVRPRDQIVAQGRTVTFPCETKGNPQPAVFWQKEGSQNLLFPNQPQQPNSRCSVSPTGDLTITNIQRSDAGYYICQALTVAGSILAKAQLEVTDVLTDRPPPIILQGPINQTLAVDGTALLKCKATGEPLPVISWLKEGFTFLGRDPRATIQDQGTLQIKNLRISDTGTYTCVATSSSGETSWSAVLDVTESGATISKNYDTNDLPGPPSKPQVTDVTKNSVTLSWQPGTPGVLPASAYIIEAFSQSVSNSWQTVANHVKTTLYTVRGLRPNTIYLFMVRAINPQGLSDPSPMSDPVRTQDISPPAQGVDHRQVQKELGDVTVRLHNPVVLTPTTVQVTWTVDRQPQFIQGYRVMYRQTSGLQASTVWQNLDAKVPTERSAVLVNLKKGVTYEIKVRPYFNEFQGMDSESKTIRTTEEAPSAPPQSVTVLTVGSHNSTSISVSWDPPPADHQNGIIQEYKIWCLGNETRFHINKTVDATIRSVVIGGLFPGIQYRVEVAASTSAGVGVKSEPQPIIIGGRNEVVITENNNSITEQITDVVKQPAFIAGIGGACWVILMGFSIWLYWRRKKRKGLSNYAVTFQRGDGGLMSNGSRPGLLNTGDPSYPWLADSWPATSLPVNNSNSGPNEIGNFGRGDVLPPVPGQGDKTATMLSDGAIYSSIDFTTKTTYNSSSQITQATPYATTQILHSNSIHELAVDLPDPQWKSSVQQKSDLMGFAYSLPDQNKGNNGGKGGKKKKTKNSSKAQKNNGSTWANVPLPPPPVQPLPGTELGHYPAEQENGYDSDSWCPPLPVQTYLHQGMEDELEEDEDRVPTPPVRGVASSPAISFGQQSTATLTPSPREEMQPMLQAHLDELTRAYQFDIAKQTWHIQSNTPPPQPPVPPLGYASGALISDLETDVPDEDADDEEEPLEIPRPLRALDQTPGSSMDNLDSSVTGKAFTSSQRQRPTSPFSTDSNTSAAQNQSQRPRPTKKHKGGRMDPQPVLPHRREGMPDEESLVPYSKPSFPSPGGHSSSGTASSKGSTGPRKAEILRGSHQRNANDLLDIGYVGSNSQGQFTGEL
In words: cell-based or functional assay.

B1: Abcs35 (antibody, human IgG1, kappa)
heavy: EVQLVQSGAEVKKPGASVKVSCKASGYTFTGYYMHWVRQAPGQGLEWMGWINPKNGDTEFPQKFQGRVTMTRDTSITTAYMDLSRLRSDDTAVYYCARESGDDAFDIWGQGTMVTVSSASTKGPSVFPLAPSSKSTSGGTAALGCLVKDYFPEPVTVSWNSGALTSGVHTFPAVLQSSGLYSLSSVVTVPSSSLGTQTYICNVNHKPSNTKVDKKVEPKSCDKTHTCPPCPAPEAAGAPSVFLFPPKPKDTLMISRTPEVTCVVVDVSHEDPEVKFNWYVDGVEVHNAKTKPREEQYNSTYRVVSVLTVLHQDWLNGKEYKCKVSNKALPAPIEKTISKAKGQPREPQVYTLPPSREEMTKNQVSLTCLVKGFYPSDIAVEWESNGQPENNYKTTPPVLDSDGSFFLYSKLTVDKSRWQQGNVFSCSVMHEALHNHYTQKSLSLSPGK
light: DIVMTQSPSSLSASVGDRVTITCRASQSISSYLNWYQQKPGKAPKLLIYAASSLQSGVPSRFSGSGSGTDFTLTISSLQPEDFATYYCQQSVGLFFGGGTKVEIKRTVAAPSVFIFPPSDEQLKSGTASVVCLLNNFYPREAKVQWKVDNALQSGNSQESVTEQDSKDSTYSLSSTLTLSKADYEKHKVYACEVTHQGLSSPVTKSFNRGEC
notes: fully human IgG1; VH of Ab96 with VL of Ab123
Consider B1, for which the binding result (in assay [1]; in the assay with Human ROBO1 Ig1-Ig2) was “no binding” throughout. Also, the “IC50, restoration of neuronal cell migration (SVZa assay)” value in the assay with Rat ROBO2 on cells is 0.027 nM.
